The data set can be described thus: total protein half-life in vivo (active degradation + dilution); higher = more stable protein.
[1] abbreviates: E. coli NCM3722 delta-clpP delta-lon delta-hslV, growth: N-lim chemostat, doubling time 6 h.
[2] abbreviates: E. coli NCM3722 delta-hslV, growth: N-lim chemostat, doubling time 6 h.
[3] abbreviates: E. coli NCM3722 delta-smpB, growth: N-lim chemostat, doubling time 6 h.
The mark [4] stands for this setting: wild type E. coli NCM3722, growth: C-lim chemostat, doubling time 6 h.
[5] abbreviates: wild type E. coli NCM3722, growth: C-lim chemostat, doubling time 12 h.
[6] abbreviates: wild type E. coli NCM3722, growth: P-lim chemostat, doubling time 6 h.
[7] abbreviates: wild type E. coli NCM3722, growth: P-lim chemostat, doubling time 12 h.
Setting [8] is: E. coli NCM3722 delta-clpP, growth: N-lim chemostat, doubling time 6 h.
Setting [9] is: wild type E. coli NCM3722, growth: C-lim chemostat, doubling time 3 h.
[10] abbreviates: wild type E. coli NCM3722, growth: N-lim chemostat, doubling time 6 h.
The mark [11] stands for this setting: E. coli NCM3722 delta-lon, growth: N-lim chemostat, doubling time 6 h.
The mark [12] stands for this setting: wild type E. coli NCM3722, growth: N-lim chemostat, doubling time 12 h.

± gives the standard deviation of the averaged measurements. Where only a bound is given, the exact number is not on record here.

For the sequence “MATVPTRSGSPRQLTTKQTGDAWEAQARRWLEGKGLRFIAANVNERGGEIDLIMREGRTTIFVEVRYRRSALYGGAAASVTRSKQHKLLQTARLWLARHNGSFDTVDCRFDVVAFTGNEVEWIKDAFNDHS”, the “total protein half-life in vivo” value runs as follows: under setting [1], 6.46 ± 0.81 h; under setting [2], 2.03 h; under setting [3], 2.14 h; under setting [4], 2.97 h; under setting [5], 2.89 ± 0.49 h; under setting [6], 1.88 h. For the same sequence, the “total protein half-life in vivo” value under setting [7] was found to be 3.74 h.

Turning to “MSSDIKIKVQSFGRFLSNMVMPNIGAFIAWGIITALFIPTGWLPNETLAKLVGPMITYLLPLLIGYTGGKLVGGERGGVVGAITTMGVIVGADMPMFLGSMIAGPLGGWCIKHFDRWVDGKIKSGFEMLVNNFSAGIIGMILAILAFLGIGPIVEALSKMLAAGVNFMVVHDMLPLASIFVEPAKILFLNNAINHGIFSPLGIQQSHELGKSIFFLIEANPGPGMGVLLAYMFFGRGSAKQSAGGAAIIHFLGGIHEIYFPYVLMNPRLILAVILGGMTGVFTLTILGGGLVSPASPGSILAVLAMTPKGAYFANIAGVCAAMAVSFVVSAILLKTSKVKEEDDIEAATRRMQDMKAESKGASPLSAGDVTNDLSHVRKIIVACDAGMGSSAMGAGVLRKKIQDAGLSQISVTNSAINNLPPDVDLVITHRDLTERAMRQVPQAQHISLTNFLDSGLYTSLTERLVAAQRHTANEEKVKDSLKDSFDDSSANLFKLGAENIFLGRKAATKEEAIRFAGEQLVKGGYVEPEYVQAMLDREKLTPTYLGESIAVPHGTVEAKDRVLKTGVVFCQYPEGVRFGEEEDDIARLVIGIAARNNEHIQVITSLTNALDDESVIERLAHTTSVDEVLELLAGRK”, the “total protein half-life in vivo” value is, setting by setting: under setting [1], 6.55 ± 0.42 h; under setting [8], 6.42 ± 0.66 h; under setting [2], 6.25 ± 0.23 h; under setting [3], 6.64 ± 0.41 h; under setting [9], 3.35 ± 0.32 h; under setting [4], 6.92 ± 0.54 h. Also, the “total protein half-life in vivo” value under setting [5] came to 12.66 ± 0.082 h, the “total protein half-life in vivo” value under setting [10] was 6.4 ± 0.15 h, the “total protein half-life in vivo” value under setting [6] came out at 6.275 ± 0.059 h and the “total protein half-life in vivo” value under setting [7] is 13.8 ± 1.2 h.

As for “MTDQAEKKHSAFWGVMVIAGTVIGGGMFALPVDLAGAWFFWGAFILIIAWFSMLHSGLLLLEANLNYPVGSSFNTITKDLIGNTWNIISGITVAFVLYILTYAYISANGAIISETISMNLGYHANPRIVGICTAIFVASVLWLSSLAASRITSLFLGLKIISFVIVFGSFFFQVDYSILRDATSSTAGTSYFPYIFMALPVCLASFGFHGNIPSLIICYGKRKDKLIKSVVFGSLLALVIYLFWLYCTMGNIPRESFKAIISSGGNVDSLVKSFLGTKQHGIIEFCLLVFSNLAVASSFFGVTLGLFDYLADLFKIDNSHGGRFKTVLLTFLPPALLYLIFPNGFIYGIGGAGLCATIWAVIIPAVLAIKARKKFPNQMFTVWGGNLIPAIVILFGITVILCWFGNVFNVLPKFG”, the “total protein half-life in vivo” value is, setting by setting: under setting [9], 3.24 ± 0.27 h; under setting [4], 5.07 ± 1.3 h; under setting [5], 11 h.

Take “MKNNPLISIYMPTWNRQQLAIRAIKSVLRQDYSNWEMIIVDDCSTSWEQLQQYVTALNDPRITYIHNDINSGACAVRNQAIMLAQGEYITGIDDDDEWTPNRLSVFLAHKQQLVTHAFLYANDYVCQGEVYSQPASLPLYPKSPYSRRLFYKRNIIGNQVFTWAWRFKECLFDTELKAAQDYDIFLRMVVEYGEPWKVEEATQILHINHGEMQITSSPKKFSGYFHFYRKHKDKFDRASKKYQLFTLYQIRNKRMTWRTLLTLLSVRNGKRLADGIRGR”: the “total protein half-life in vivo” value is 3.18 h under setting [1], 2.71 ± 0.069 h under setting [11] and 1.7 ± 0.1 h under setting [3].

Consider “MDLLIVLTYVALAWAVFKIFRIPVNQWTLATAALGGVFLVSGLILLMNYNHPYTFTAQKAVIAIPITPQVTGIVTEVTDKNNQLIQKGEVLFKLDPVRYQARVDRLQADLMTATHNIKTLRAQLTEAQANTTQVSAERDRLFKNYQRYLKGSQAAVNPFSERDIDDARQNFLAQDALVKGSVAEQAQIQSQLDSMVNGEQSQIVSLRAQLTEAKYNLEQTVIRAPSNGYVTQVLIRPGTYAAALPLRPVMVFIPEQKRQIVAQFRQNSLLRLKPGDDAEVVFNALPGQVFHGKLTSILPVVPGGSYQAQGVLQSLTVVPGTDGVLGTIELDPNDDIDALPDGIYAQVAVYSDHFSHVSVMRKVLLRMTSWMHYLYLDH [P0AFV0]”, for which the “total protein half-life in vivo” value under setting [1] came out at 3.52 h.

With “MKTSLFKSLYFQVLTAIAIGILLGHFYPEIGEQMKPLGDGFVKLIKMIIAPVIFCTVVTGIAGMESMKAVGRTGAVALLYFEIVSTIALIIGLIIVNVVQPGAGMNVDPATLDAKAVAVYADQAKDQGIVAFIMDVIPASVIGAFASGNILQVLLFAVLFGFALHRLGSKGQLIFNVIESFSQVIFGIINMIMRLAPIGAFGAMAFTIGKYGVGTLVQLGQLIICFYITCILFVVLVLGSIAKATGFSIFKFIRYIREELLIVLGTSSSESALPRMLDKMEKLGCRKSVVGLVIPTGYSFNLDGTSIYLTMAAVFIAQATNSQMDIVHQITLLIVLLLSSKGAAGVTGSGFIVLAATLSAVGHLPVAGLALILGIDRFMSEARALTNLVGNGVATIVVAKWVKELDHKKLDDVLNNRAPDGKTHELSS [P0A830]”, the “total protein half-life in vivo” value is 3.58 h under setting [2]; 4.23 h under setting [3]; 5.59 ± 0.43 h under setting [4]; 10.7 ± 0.59 h under setting [5]; 5.77 h under setting [10]; 5.05 h under setting [6]. Under setting [7], the “total protein half-life in vivo” value was found to be 8.47 h.

As for “MGQSKKLNKQPSSLSPLVQLAGIRKCFDGKEVIPQLDLTINNGEFLTLLGPSGCGKTTVLRLIAGLETVDSGRIMLDNEDITHVPAENRYVNTVFQSYALFPHMTVFENVAFGLRMQKTPAAEITPRVMEALRMVQLETFAQRKPHQLSGGQQQRVAIARAVVNKPRLLLLDESLSALDYKLRKQMQNELKALQRKLGITFVFVTHDQEEALTMSDRIVVMRDGRIEQDGTPREIYEEPKNLFVAGFIGEINMFNATVIERLDEQRVRANVEGRECNIYVNFAVEPGQKLHVLLRPEDLRVEEINDDNHAEGLIGYVRERNYKGMTLESVVELENGKMVMVSEFFNEDDPDFDHSLDQKMAINWVESWEVVLADEEHK”, the “total protein half-life in vivo” value is, setting by setting: under setting [1], 7.21 ± 0.97 h; under setting [2], 5.83 ± 0.062 h; under setting [11], 5.7 ± 0.78 h; under setting [3], 5.77 ± 0.36 h; under setting [9], 3.46 ± 0.65 h; under setting [4], 6.55 ± 0.38 h. Also, the “total protein half-life in vivo” value runs as follows: under setting [5], 11.9 ± 0.32 h; under setting [12], 12.2 ± 0.83 h; under setting [6], 6.41 ± 0.34 h; under setting [7], 13.4 ± 0.35 h.

As for “MSIQLNGINCFYGAHQALFDITLDCPQGETLVLLGPSGAGKSSLLRVLNLLEMPRSGTLNIAGNHFDFTKTPSDKAIRDLRRNVGMVFQQYNLWPHLTVQQNLIEAPCRVLGLSKDQALARAEKLLERLRLKPYSDRYPLHLSGGQQQRVAIARALMMEPQVLLFDEPTAALDPEITAQIVSIIRELAETNITQVIVTHEVEVARKTASRVVYMENGHIVEQGDASCFTEPQTEAFKNYLSH [P0AAF6]”, the “total protein half-life in vivo” value is, setting by setting: under setting [1], 6.06 ± 0.7 h; under setting [8], 5.54 ± 0.19 h; under setting [2], 6.4 h; under setting [11], 5.57 ± 0.91 h; under setting [3], 4.77 ± 0.37 h; under setting [9], over 4 h. Besides, the “total protein half-life in vivo” value reads like this: under setting [4], 6.19 ± 0.35 h; under setting [5], 11.9 h; under setting [10], 5.55 ± 0.86 h; under setting [12], 10.5 ± 0.48 h; under setting [6], 6.11 h; under setting [7], 11.6 ± 0.25 h.

In the case of “MVKKSEFERGDIVLVGFDPASGHEQQGAGRPALVLSVQAFNQLGMTLVAPITQGGNFARYAGFSVPLHCEEGDVHGVVLVNQVRMMDLHARLAKRIGLAADEVVEEALLRLQAVVE”, the “total protein half-life in vivo” value runs as follows: under setting [4], 6.08 h; under setting [12], 6.76 h; under setting [7], 10.7 h.

These data come from the supplement of paper PMC11246515.
